We go through one substance from article PMC4841768.

Data set [1] in a line: label-free LC-MS of TAD peptide. The conditions noted are these: glycan lost; control: fSOX2-Tg mESCs.
Data set [2] can be described thus: Western blot and immunostaining, transduced MEFs. To be noted: glycan lost; control: OSFLAG-WTKM. On the technique in general: In western blotting, separated proteins are transferred to a membrane and probed.
Data set [3] in a line: immunofluorescence, mESCs. The conditions noted are these: glycan lost; control: fSOX2-Tg mESCs.
A short description of data set [4]: FLAG immunofluorescence, MEFs day 6. To be noted: glycan lost; control: OSFLAG-WTKM.
Another data set can be described thus: Western blot, mESCs. The conditions noted are these: glycan lost; control: fSOX2-Tg mESCs.

SOX2: S248A, sequence (chain, as listed by the source S248A): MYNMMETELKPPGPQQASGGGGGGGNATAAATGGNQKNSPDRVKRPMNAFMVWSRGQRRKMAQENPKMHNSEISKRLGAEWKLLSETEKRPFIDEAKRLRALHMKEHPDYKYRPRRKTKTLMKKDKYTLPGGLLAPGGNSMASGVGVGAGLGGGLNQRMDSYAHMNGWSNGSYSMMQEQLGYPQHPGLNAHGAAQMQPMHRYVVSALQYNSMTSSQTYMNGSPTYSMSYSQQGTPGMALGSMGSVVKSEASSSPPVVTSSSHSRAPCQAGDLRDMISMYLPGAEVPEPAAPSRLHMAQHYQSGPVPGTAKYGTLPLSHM

For the substance SOX2: S248A, in data set [1], the “other: phosphorylation at S253, other: % of total TAD peptide” value is recorded as “increases, 18.7 vs 10.9”. For the same substance, the expression_or_secretion result in data set [2] is “no change”; in “Western blot, mESCs”, “no change”. Further, the localisation_or_trafficking result in data set [3] and in data set [4] was “no change” in each case.
